Legend:
[1] = molecular target: T1, mouse EphA4 extracellular region-SEAP-His protein (mouse); test: competition ELISA, competitor mouse Ephrin A1-Fc
Method: Antibody A obtained in Example 1 was evaluated for its inhibitory activity against the binding between mouse EphA4 and its mouse ligand according to the following steps. Each well of a 96-well plate (Nunc) was coated with an anti-alkaline phosphatase antibody (Thermo Fisher Scientific). After incubation overnight at 4° C., each well was blocked with 1% BlockAce (DS Pharma Biomedical) at room temperature for 1 hour. After washing with 0.05% Tween 20/PBS (Thermo Fisher Scientific) three times, the mouse EphA4 extracellular region-SEAP-His protein obtained by the method of Example 1 was added (final concentration: 10 nM) to each well and incubated at room temperature for 1 hour. After washing three times, ligands and serially diluted antibody A (0, 0.001, 0.003, 0.01, 0.03, 0.1, 0.3, 1,3, 10, 30, 100, 300, and 1000 nM) or a known EphA4 inhibitor KYL peptide ([…], 0, 0.003, 0.01, 0.03, 0.1, 0.3, 1, 3, 10, 30, and 100 μM, its synthesis was outsourced to Hokkaido System Science) or compound 1 (0, 0.03, 0.1, 0.3, 1,3, 10, 30, 100, 300, and 1000 μM, Formula 1, Matrix Scientific) were added to each well. The ligands used were mouse Ephrin A1-Fc chimera (R&D Systems, final concentration: 20 nM) and mouse Ephrin B2-Fc chimera (R&D Systems, final concentration: 0.6 nM). […] The absorbance at 450 nm was read using a microplate reader (Molecular Devices).

[2] = molecular target: T1, mouse EphA4 extracellular …; test: competition ELISA, competitor biotinylated mouse Ephrin B2-Fc; alternative value in brackets
Method: Antibody A-Fab and antibody A-F(ab′)₂ obtained in Example 5 were evaluated for their inhibitory activity against the binding between EphA4 and its ligand according to the following steps. Each well of a 96-well plate (Nunc) was coated with an anti-alkaline phosphatase antibody (Thermo Fisher Scientific). After incubation overnight at 4° C., each well was blocked with 1% BlockAce (DS Pharma Biomedical) at room temperature for 1 hour. After washing with 0.05% Tween 20/PBS (Thermo Fisher Scientific) three times, the mouse EphA4 extracellular region-SEAP-His protein obtained by the method of Example 1 was added (final concentration: 10 nM) to each well and incubated at room temperature for 1 hour. After washing three times, a ligand and serially diluted antibody A (0, 0.003, 0.01, 0.03, 0.1, 0.3, 1, 3, 10, 30, 100, 300, 1000, and 3000 nM), antibody A-Fab (0, 0.003, 0.01, 0.03, 0.1, 0.3, 1, 3, 10, 30, 100, 300, 1000, and 3000 nM), antibody A-F(ab′)₂ (0, 0.003, 0.01, 0.03, 0.1, 0.3, 1, 3, 10, 30, 100, 300, 1000, and 3000 nM), or the EphA4 inhibitor KYL peptide ([…], 0, 0.0003, 0.001, 0.003, 0.01, 0.03, 0.1, 0.3, 1, 3, 10, 30, 100, 300, 1000, and 3000 μM, its synthesis was outsourced to Toray Research Center) were added to each well. […] The absorbance at 450 nm was read using a microplate reader (Molecular Devices or PerkinElmer). […]

[3] = molecular target: T1, mouse EphA4 extracellular …; test: SPR (Biacore A100), antibody captured, EphA4-SEAP-His analyte
Method: (§1) The binding affinity of antibody A obtained in Example 1 for mouse and human EphA4 was determined by surface plasmon resonance (SPR) using Biacore A100 (GE Healthcare). First, a rat anti-mouse IgG₁ antibody produced with a conventional procedure by immunizing rat with a mouse IgG₁ antibody was immobilized on sensor chip CM5. The immobilization of the rat anti-mouse IgG1 antibody on sensor chip CM5 was performed by the amine coupling method using N-hydroxysuccinimide (NHS) and N-ethyl-N′-(3-dimethylaminopropyl)carbodiimide hydrochloride (EDC). Ethanolamine was used in blocking (the sensor chip and the reagents for immobilization were all manufactured by GE Healthcare). The antibody was diluted with a buffer solution for immobilization (10 mM sodium acetate, pH 4.5) into 1 to 2 μg/mL and immobilized on the sensor chip according to the protocol attached to Biacore A100. Antibody A was diluted with a running buffer solution HBS-EP (GE Healthcare, BR-1001-88), injected onto a flow cell for 120 seconds, and captured (amount of the antibody captured: approximately 70 to 100 RU). Subsequently, mouse or human EphA4 extracellular region-SEAP-His serially diluted in the range of 50, 25, 12.5, 6.3, 3.1, 1.6, 0.8, and 0 nM using HBS-EP was added to the sensor chip for 120 seconds. […]

[4] = molecular target: T2, human EphA4 extracellular region-SEAP-His protein (human, UniProt P54764 20-547); test: as above
T2 construct: also called hEphA4-SEAP-His
Method: as §1

[5] = molecular target: T1, mouse EphA4 extracellular …; test: SPR (Biacore A100), antibody A captured on a rat anti-mouse IgG1 CM5 chip, mouse EphA4 extracellular region-SEAP-His as analyte at 0.8-50 nM, 1:1 fit
Method: as §1

T1 sequence (chain, as listed by the source limits assumed): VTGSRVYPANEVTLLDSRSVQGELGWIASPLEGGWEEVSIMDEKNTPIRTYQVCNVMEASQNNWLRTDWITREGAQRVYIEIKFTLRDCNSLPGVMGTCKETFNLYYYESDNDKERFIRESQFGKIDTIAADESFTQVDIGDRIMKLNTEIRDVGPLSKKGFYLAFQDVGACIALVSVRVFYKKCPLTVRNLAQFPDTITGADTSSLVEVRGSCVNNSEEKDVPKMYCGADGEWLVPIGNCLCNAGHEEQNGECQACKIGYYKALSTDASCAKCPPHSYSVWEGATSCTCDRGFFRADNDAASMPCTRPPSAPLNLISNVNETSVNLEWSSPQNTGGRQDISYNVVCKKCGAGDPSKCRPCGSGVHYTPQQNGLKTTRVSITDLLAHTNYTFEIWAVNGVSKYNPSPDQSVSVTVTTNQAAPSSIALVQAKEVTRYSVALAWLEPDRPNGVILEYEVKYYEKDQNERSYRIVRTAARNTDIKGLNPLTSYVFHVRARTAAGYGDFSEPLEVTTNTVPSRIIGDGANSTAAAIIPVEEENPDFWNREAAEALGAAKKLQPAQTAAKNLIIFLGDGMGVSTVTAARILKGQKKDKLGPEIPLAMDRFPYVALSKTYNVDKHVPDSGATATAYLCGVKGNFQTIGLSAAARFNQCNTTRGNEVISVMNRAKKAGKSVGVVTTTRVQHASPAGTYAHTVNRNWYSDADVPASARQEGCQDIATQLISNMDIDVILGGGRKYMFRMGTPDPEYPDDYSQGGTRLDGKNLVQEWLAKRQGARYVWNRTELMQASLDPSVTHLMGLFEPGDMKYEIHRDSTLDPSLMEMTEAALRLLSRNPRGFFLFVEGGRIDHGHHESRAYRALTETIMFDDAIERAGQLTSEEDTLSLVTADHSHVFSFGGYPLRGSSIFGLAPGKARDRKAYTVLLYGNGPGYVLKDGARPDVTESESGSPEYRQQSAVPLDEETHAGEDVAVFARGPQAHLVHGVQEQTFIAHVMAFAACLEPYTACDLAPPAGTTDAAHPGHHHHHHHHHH
T2 sequence (P54764 20-547): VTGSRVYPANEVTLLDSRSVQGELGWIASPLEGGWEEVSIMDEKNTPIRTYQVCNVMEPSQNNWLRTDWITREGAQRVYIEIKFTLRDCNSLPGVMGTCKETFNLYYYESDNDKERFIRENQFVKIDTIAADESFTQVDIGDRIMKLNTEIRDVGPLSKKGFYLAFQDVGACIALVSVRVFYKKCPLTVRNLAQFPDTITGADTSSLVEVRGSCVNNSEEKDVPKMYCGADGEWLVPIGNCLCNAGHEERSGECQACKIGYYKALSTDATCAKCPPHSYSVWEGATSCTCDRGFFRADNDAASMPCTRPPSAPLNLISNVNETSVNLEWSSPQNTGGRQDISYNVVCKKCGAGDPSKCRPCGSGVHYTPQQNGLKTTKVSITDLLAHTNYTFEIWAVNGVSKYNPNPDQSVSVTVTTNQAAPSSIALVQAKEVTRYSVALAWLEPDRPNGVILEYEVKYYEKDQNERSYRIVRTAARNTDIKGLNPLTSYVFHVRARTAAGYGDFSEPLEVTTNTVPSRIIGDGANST

B1: antibody A (antibody, mouse IgG1, kappa, V domains shown)
VH: QIQLVQSGPELKKPGETVKISCKASGYTFTDYSMHWVKQAPGKGLKWMGWINTETGEPTYADDFKGRFAFSLETSASTAYLQINNLKNEDTATYFCARIPLYYYGSRYWYFDVWGAGTTVTVSS
VL: DIQMTQSPASLSVSVGETVTITCRASENIYRNLAWYQQKQGKSPQLLVYAATNLADGVPSRFSGSGSGTQYSLKINSLQSEDFGSYYCQHFWGTPWTFGGGTKLEIKR
notes: mouse IgG1 heavy chain, kappa light chain; purified from hybridoma supernatant; also called anti-EphA4 monoclonal antibody; antibody A-IgG
IC50 [1]: ~1.2 nM
IC50 [2]: 3.6 nM
Kd [3]: 0.729 nM
Kd [4]: 0.661 nM
koff [5]: 0.000144 s⁻¹
kon [5]: 218000 M⁻¹ s⁻¹
